Data: the RNAGym collection of RNA variant scans (doi:10.1021/acssynbio.7b00057)

B1: Pistol ribozyme (parent)
chain: GGGUCGUUGUUCCAUAAUCGCGUGGAUAUGGCACGCAAGUUUCUACCGGGCACCGUAAAUGUCCGACUGGAGCCGUUCGGGCGGCUAUAAACAGACCUCAGGCCCGAAGCGUGGCGGCACCUGCCGCCGGUGGUAAAAAAGAUCGGAAGAGCACACGUCU

Variants of: B1
Assay: aptazyme ON/OFF ratio, guanine; higher = stronger switching; co-transcriptional cleavage with and without guanine

Aptazyme ON/OFF ratio, 1.04:
U7C U8A G9C U10C U11C C12A C13A
U7C U8A G9C U10G U11A C13U
U7C U8A G9C U10C C12A

Aptazyme ON/OFF ratio, 1.14:
U7C U8A G9U U10A U11G C12G
U7C U8A G9U C12U C13G
U7C U8A G9U U10A U11A C12U
U7C U8A G9C U11C C12U
U7C U8A G9C U10G U11G C13U
U7C U8A G9U U10A U11C C12U C13A
U7C U8A G9C U10G U11A C12U C13U
U7C U8A G9C U11A C12G C13U

Aptazyme ON/OFF ratio, 3.35:
U7C U8A G9U U10C

Aptazyme ON/OFF ratio, 1.2:
U7C U8A G9C U11G C12G
U7C U8A G9U U10A C13A

Aptazyme ON/OFF ratio, 1.17:
U7C U8A G9C U10G U11A C12A C13A
U7C U8A G9U U10A U11A C12G
U7C U8A G9C U11A C12G C13G
U7C U8A G9C U10G C12A

Aptazyme ON/OFF ratio, 1:
U7C U8A G9C U10C U11C C12A C13G
U7C U8A G9C U10C U11C C13G

Aptazyme ON/OFF ratio, 1.07:
U7C U8A G9C U10C U11G C12G C13U
U7C U8A G9U U10C U11C C12G C13U
U7C U8A G9U U10A U11C C12U
U7C U8A G9C U11C C12G C13A
U7C U8A G9U U10C U11G C12A
U7C U8A G9U U10A U11A C13G

Aptazyme ON/OFF ratio, 1.08:
U7C U8A G9U U10C U11A C12A C13A
U7C U8A G9U U10A U11G C12A
U7C U8A G9C U10G U11A C12U
U7C U8A G9C U10G U11A C13A
U7C U8A G9C U10C U11G C12U

Aptazyme ON/OFF ratio, 1.31:
U7C U8A G9C U10A U11G C12G

Aptazyme ON/OFF ratio, 1.33:
U7C U8A G9C U10G U11A C12A C13U

Aptazyme ON/OFF ratio, 1.35:
U7C U8A G9C U10G C13U

Aptazyme ON/OFF ratio, 1.06:
U7C U8A G9U C12A
U7C U8A G9C U11G C12A
U7C U8A G9C U10A U11G C12A
U7C U8A G9C U10A U11C C13A
U7C U8A G9C U10G U11G C12A C13U
U7C U8A G9C U10C U11G C13G
U7C U8A G9C U10C U11A C12U

Aptazyme ON/OFF ratio, 1.15:
U7C U8A G9C U11A C12U
U7C U8A G9U U10C U11A C12A C13U
U7C U8A G9U U10A U11G C12G C13A
U7C U8A G9U U10C C12A C13G
U7C U8A G9U U10C C12A C13U
U7C U8A G9U U10A U11C C12A
U7C U8A G9C U10C C12U
U7C U8A G9C U11G C12A C13G
U7C U8A G9C U11G C12A C13U
U7C U8A G9C U10A U11G C12G C13G
U7C U8A G9C U10G C13A

Aptazyme ON/OFF ratio, 1.18:
U7C U8A G9U U10A C12G
U7C U8A G9U U10A U11A C12A C13G

Aptazyme ON/OFF ratio, 1.03:
U7C U8A G9U U10C U11C C13G
U7C U8A G9U C13G
U7C U8A G9C U10C C12G
U7C U8A G9U U10C U11C C12U C13A
U7C U8A G9C U10C U11C C13U
U7C U8A G9C U10C U11A C12G
U7C U8A G9C U10C U11A C12A
U7C U8A G9C U10C C13A

Aptazyme ON/OFF ratio, 1.12:
U7C U8A G9C U11A C12G
U7C U8A G9U U10C U11A C12G
U7C U8A G9U U10C U11A C12U
U7C U8A G9U U10A U11G C12G C13U
U7C U8A G9C U11C C12G C13G
U7C U8A G9C U10G U11G C12A C13G
U7C U8A G9C U10G U11G C12U
U7C U8A G9C U10C U11A C12G C13U
U7C U8A G9C U10G U11G C12U C13A

Aptazyme ON/OFF ratio, 1.36:
U7C U8A G9C U10A U11C C12G C13U
U7C U8A G9C U10G C12U

Aptazyme ON/OFF ratio, 1.22:
U7C U8A G9U C12G C13U
U7C U8A G9U U10A C12A C13U

Aptazyme ON/OFF ratio, 1.02:
U7C U8A G9U U10C U11C C13A
U7C U8A G9C U10A U11C C13U
U7C U8A G9U U10C U11C C12U C13U
U7C U8A G9U U10C U11C C12U C13G

Aptazyme ON/OFF ratio, 1.34:
U7C U8A G9U C12U
U7C U8A G9C U10G U11C C12U C13U

Aptazyme ON/OFF ratio, 1.19:
U7C U8A G9C U10G U11A C12G C13G
U7C U8A G9U U10A C12U
U7C U8A G9U U10A C12A
U7C U8A G9U U10A U11A C12A C13U
U7C U8A G9U U10A C13U
U7C U8A G9U U10A U11A C13U
U7C U8A G9C U10G U11C C12U C13A

Aptazyme ON/OFF ratio, 1.39:
U7C U8A G9C U10G U11C C13A

Aptazyme ON/OFF ratio, 1.21:
U7C U8A G9U C12G C13A
U7C U8A G9U C12G C13G
U7C U8A G9C U10A U11G C12U
U7C U8A G9U U10A U11C C12U C13U

Aptazyme ON/OFF ratio, 1.28:
U7C U8A G9U C13U
U7C U8A G9U U10A U11C C12G
U7C U8A G9C U10G C12G

Aptazyme ON/OFF ratio, 1.38:
U7C U8A G9C U10G U11A C12A

Aptazyme ON/OFF ratio, 1.59:
U7C U8A G9U

Aptazyme ON/OFF ratio, 1.26:
U7C U8A G9U U10A U11G C12G C13G

Aptazyme ON/OFF ratio, 1.27:
U7C U8A G9C U10G U11C C12U C13G

Aptazyme ON/OFF ratio, 1.01:
U7C U8A G9U U10C U11C C13U
U7C U8A G9C U10C U11C C13A

Aptazyme ON/OFF ratio, 1.1:
U7C U8A G9C U11A C12A
U7C U8A G9C U10G U11A C12G C13A
U7C U8A G9C U10C U11G C12U C13U
U7C U8A G9U U10A U11A C12A
U7C U8A G9C U11C C12G C13U
U7C U8A G9C U10A U11G C12G C13U
U7C U8A G9C U10A U11G C12G C13A
U7C U8A G9C U10C U11A C12G C13G
U7C U8A G9C U10C U11A C12G C13A
U7C U8A G9C U10C U11G C13A
U7C U8A G9C U10G U11G C12U C13G

Aptazyme ON/OFF ratio, 1.13:
U7C U8A G9U U10C U11A C12A C13G
U7C U8A G9U U10A U11G C12U
U7C U8A G9U U10C U11A C12A
U7C U8A G9C U10G U11A C12G C13U
U7C U8A G9C U10G U11A C12A C13G
U7C U8A G9U U10C C12A C13A
U7C U8A G9C U10G U11G C12G C13G
U7C U8A G9C U10G U11G C12G
U7C U8A G9C U10G U11G C13A
U7C U8A G9U U10A U11A C12A C13A
U7C U8A G9U U10A U11C C12U C13G
U7C U8A G9C U11G C12A C13A
U7C U8A G9C U10G U11A C12U C13G
U7C U8A G9U U10A U11A C13A
U7C U8A G9C U11A C12G C13A

Aptazyme ON/OFF ratio, 1.32:
U7C U8A G9C U10G U11A C12G

Aptazyme ON/OFF ratio, 1.05:
U7C U8A G9C U10C U11C C12A C13U
U7C U8A G9C U10C U11G C12U C13A
U7C U8A G9C U10G U11C C13G
U7C U8A G9C U10A U11C C13G
U7C U8A G9U U10A C13G
U7C U8A G9C U10C C13G

Aptazyme ON/OFF ratio, 1.23:
U7C U8A G9C U10G U11G C12A
U7C U8A G9C U10C C13U

Aptazyme ON/OFF ratio, 1.16:
U7C U8A G9U C12G
U7C U8A G9U U10A C12A C13G
U7C U8A G9U C13A
U7C U8A G9U U10A
U7C U8A G9C U10C U11G C13U
U7C U8A G9C U10G U11A C12U C13A

Aptazyme ON/OFF ratio, 1.11:
U7C U8A G9C U10C U11G C12G C13G
U7C U8A G9C U10C U11G C12G C13A
U7C U8A G9C U10C U11G C12U C13G
U7C U8A G9U U10C U11C C12G C13G
U7C U8A G9C U10G U11A C13G
U7C U8A G9C U10C U11G C12A
U7C U8A G9C U11C C12A
U7C U8A G9C U11C C12G
U7C U8A G9C U10G U11G C12G C13A
U7C U8A G9C U10G U11G C13G
U7C U8A G9C U10G C13G

Aptazyme ON/OFF ratio, 1.29:
U7C U8A G9C U11G C12U
U7C U8A G9U C12U C13U
U7C U8A G9U U10A C12A C13A
U7C U8A G9C U10A U11G
U7C U8A G9C U10A U11C C12G C13A
U7C U8A G9C U10A U11C C12G C13G

Aptazyme ON/OFF ratio, 1.09:
U7C U8A G9U C12U C13A
U7C U8A G9U U10C U11C C12G C13A
U7C U8A G9C U10G U11C C13U
U7C U8A G9C U10C U11G C12G
U7C U8A G9C U10G U11G C12A C13A
U7C U8A G9C U10G U11G C12G C13U
U7C U8A G9C U10G U11G C12U C13U
